In the nanobody polyreactivity screen of Harvey et al. (2022):

Assay: yeast display, Sf9 membrane polyspecificity reagent, FACS + sequencing; frameworks hold sequencing errors
Outline: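 Galactose-induced (36–48 hours) yeast carrying a synthetic nanobody display library were exposed to 10% biotinylated, detergent-solubilized Sf9 membrane reagent at 4 °C for 1 hour. FACS followed streptavidin microbead enrichment, using low and high (top ~1%) gates for expression (anti-HA) and reagent binding (streptavidin). Colony PCR, MiSeq 2 × 250 sequencing and CDR-length filtering followed. Labels for polyreactivity reflect the gate of origin.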

## QVQLVESGGGLVQAGGSLRLSCAASGFTFYYYTMGWYRQAPGKEMELVADISSGDRTYYADSVKGRFTISRDNAKNTVYLQMNSLKPEDTAVYYCAAPAKYYTRFGHYILNQDYDSWGQGTQVTVSS
  polyreactivity (PSR sort gate): low polyreactivity

## QVQLVESGGGLVQAGGSLRLSCAASGFTIADYAMGWYRQAPGKERELVAAITYSGGSTYYADSVKGRFTISRDNAKNTVYLQMNSLKPEDTAVYYWNADYASQSGYDYWGQGTQVTVSS
  polyreactivity (PSR sort gate): low polyreactivity

## QVQLVESGGGLVQAGGSLRLSCAASGFTIAGYAMGWYRQAPWKERELVAAISRGGITYYADSVKGRFTISRDNAKNTVYLQMNSLKPEDTAVYYCAAGKRWSTKYGYWGQGTQVTVSS
  polyreactivity (PSR sort gate): high polyreactivity

## QVQLVESGGGLVQAGGSLRLSCAASGFTIASNDMGWYRQAPGKERELVAAITKGGGRTYYADSVKGRFTISRDNAKNTVYLQMNSLKPEDTAVYYCAARQLIKYDYWGQGTQVTVSS
  polyreactivity (PSR sort gate): low polyreactivity

## QVQLVESGGGLVQAGGSLRLSCAASGFTIDTYAMGWYRQAPGKERELVAGISWSGGSTYYADSVKGRFTISRDNAKNTVYLQMNSLKPEDTAVYYCARTARRRYQPYEYWGQGTQVTVSS
  polyreactivity (PSR sort gate): low polyreactivity

## QVQLVESGGGLVQAGGSLRLSCAASGFTIGYYAMGWYRQAPGKERELDAAISSGGGSTKYADSVKGRFTISRDNAKNTVYLQMNSLKPVDTAVYYFAKSRLVRGRSSYDYWGQGSQVTVSS
  polyreactivity (PSR sort gate): high polyreactivity

## QVQLVESGGGLVQAGGSLRLSCAASGFTIGYYAMGWYRQAPGKERELVAAISWSGGRTYYAYSVKGRFTISRDNAKNTVYLQMNSLKPEDTAVYYCAADGQQTYSGYDYWGQGTQVTVSS
  polyreactivity (PSR sort gate): high polyreactivity

## QVQLVESGGGLVQAGGSLRLSCAASGFTIHYYVMVWYRQAPGKERELVAAIRRGGSTSYADSVKGRFTISRDNAKNTVYLQMNSLKPEDTAVYYCAASYVSGERYDYWGQGTQVTVSS
  polyreactivity (PSR sort gate): low polyreactivity

## QVQLVESGGGLVQAGGSLRLSCAASGFTIIYYAMGWYRQAPGKERELVAAITDSGGSTYYADSVKGRFTISRDNAKNTVYLQMNSLKPEDTAVYYCAARLTCSRFYYWGQGTQVTVSS
  polyreactivity (PSR sort gate): high polyreactivity

## QVQLVESGGGLVQAGGSLRLSCAASGFTIKYNTMGWYRQAPGKERELVAAITSNTGSTYYADSVKGRFTISRDNAKNTVYLQMNSLKPEDTAVYYCAVTSYYRRYGYWGQGTQVTVSS
  polyreactivity (PSR sort gate): high polyreactivity

## QVQLVESGGGLVQAGGSLRLSCAASGFTINFYGMGWYRQAPGKERELVAAITASGGGSTYYADSVKGRFTISRDNAKNTVYLQMNSLKPEDTAVYYCNADYTGSFYTYDYWGQGTQVTVSS
  polyreactivity (PSR sort gate): low polyreactivity

## QVQLVESGGGLVQAGGSLRLSCAASGFTIPYKAMGWYRHAPGKERELVAAISRSGTRTYYADSVKGRFTISRDNAKNTVYIQMNSLKPEDTAVYYCAKDTIGGASPHYYWGQGTQVTVSS
  polyreactivity (PSR sort gate): high polyreactivity

## QVQLVESGGGLVQAGGSLRLSCAASGFTIRLYAMGWYRQAPGKERELVAAITSGGSTYADSVKGRFTISRDNAKNTVYLQMNSLKPEDTAVYYCNAEALVNGGYDYWGQGTQVTVSS
  polyreactivity (PSR sort gate): high polyreactivity

## QVQLVESGGGLVQAGGSLRLSCAASGFTIRRNAMGWYRQAPGKERELVAAISDRGGSTYYADSVKGRFTISRDTAKNTVYFQMTSLKPEDTAVYYCAAEPYAGPELDYWGQGTQVTVSS
  polyreactivity (PSR sort gate): high polyreactivity

## QVQLVESGGGLVQAGGSLRLSCAASGFTIRRYAMGWYRQAPGKERELVAAITRSAGSTYYADSVKGRFTISRDNAKNTVYLQMNSLKPEDTAVYYCAARWTRWGADSGYYWGQGTQVTVSS
  polyreactivity (PSR sort gate): high polyreactivity

## QVQLVESGGGLVQAGGSLRLSCAASGFTIRYYTMGWYRQAPGKERELVAAITWSGGRTYYADSVKGRFTISRDNAKNTVYLQMNSLKPEDTAVYYCAADVTKRASRDYYWGQGTQVTVSS
  polyreactivity (PSR sort gate): high polyreactivity

## QVQLVESGGGLVQAGGSLRLSCAASGFTISYYAMGWYRQAPWKERELVASISSSGGRTYYADSVKGRFTISRDNAKNTVYLQMNSLKPEDTAVYYCAAVGGRSTRGYYWGQGTQVTVSS
  polyreactivity (PSR sort gate): high polyreactivity

## QVQLVESGGGLVQAGGSLRLSCAASGFTITNYAMGWYRQAPGKERELVAAISTGGGRTYYADSVKGRFTISRDNAKNTVYLQMYSLKPEDTAVYYCAVVPYNISKTEQPGMDYWGQGTQVTVST
  polyreactivity (PSR sort gate): high polyreactivity

## QVQLVESGGGLVQAGGSLRLSCAASGFTITRNTMGWYRQAPGKERELVAAITRGGSTNYADSVKGRFTISRDNAKNSVYLQMNSLKPEDTAVYYCNKGRNVVLVRTADDYWGQGTQVTVSS
  polyreactivity (PSR sort gate): low polyreactivity

## QVQLVESGGGLVQAGGSLRLSCAASGFTIWWYAMRWYRQATGKERELVATITSGGRTYYADSVKGRFTISRDNAKNTDYLQMNSLKPEDTAVYYCAAESEVGYVYDPMYYWGQGTQVTVSS
  polyreactivity (PSR sort gate): high polyreactivity

## QVQLVESGGGLVQAGGSLRLSCAASGFTIYAYTMGWYRQAPGKERDLVASITSRGGTTYYADSVKGRFTISRDNEKNTVYLQMNSLKPEDTAVYYCNARGYFGWYAMDYCGQGTQVTVSS
  polyreactivity (PSR sort gate): high polyreactivity

## QVQLVESGGGLVQAGGSLRLSCAASGFTIYGNAMGWSRQAPGKERELVAAITWRGGSTYYADSVKGRFTISRDNAKNTVYLQMNSLKPEDTAVYYCAARWLLGYYRYDYWGQGTQVTVSS
  polyreactivity (PSR sort gate): high polyreactivity

## QVQLVESGGGLVQAGGSLRLSCAASGFTIYGYVMGWYRQAPGKERELVAAISWSGGSTYYADSVKGRFTISRDNAKNTVYLQMNSLKPEDTAVYYCAAEGWSDYTSRLYDYWGQGTQVTVSS
  polyreactivity (PSR sort gate): low polyreactivity

## QVQLVESGGGLVQAGGSLRLSCAASGFTIYNNVMVWYRQAPGKERELVAAITSSGGRTYYADSVKGRFTISRDIAKNTVYLQMNSLKPEDTAVYYCNALYFRKGGYWGQGTQVTVSS
  polyreactivity (PSR sort gate): high polyreactivity

## QVQLVESGGGLVQAGGSLRLSCAASGFTIYYYAMGWDRQAPGKERELVASITSGGSTYYADSVKGRFTISRDNAKNTVYLQMNSLKPEDTAVYYCAADYYSPSLRYDYWGQGTQVTVSS
  polyreactivity (PSR sort gate): low polyreactivity

## QVQLVESGGGLVQAGGSLRLSCAASGFTLADNTMGWYRQAPGKERQLVATISSDGNTNYADSVKGRFTISRDNAKNTVYLQMNSLKPEDTAVYYCNAEGVFGDVRSGFYWYDYWGQGTQVTVSS
  polyreactivity (PSR sort gate): low polyreactivity

## QVQLVESGGGLVQAGGSLRLSCAASGFTLDDNGMGWYRPAPGKECELVESITWSGGSTDYADSVKGRFTISRDTAKNTVYLQMNSLKPEDTAVYSCNVGDPIGGFLSYWGGDYWGQGTQVTVSS
  polyreactivity (PSR sort gate): low polyreactivity

## QVQLVESGGGLVQAGGSLRLSCAASGFTLFANVMGWYRQAPGKERELVAAISWRSGNTYYADSVKGRFTISRDNAKNTVYLQMNSLKPEDTAVYYCAADTTGDQHSWGTSGIIEGDYWGQGTQVTVSS
  polyreactivity (PSR sort gate): low polyreactivity

## QVQLVESGGGLVQAGGSLRLSCAASGFTLFQNAMGWYRQAPGKERELVAAISTGGSTYYADSVKGRFTISRDNAKNTVYLQMNSLKPEDTAVYYCAAVWPYRGSRKYYSWGQGTQVTVSS
  polyreactivity (PSR sort gate): high polyreactivity

## QVQLVESGGGLVQAGGSLRLSCAASGFTLFTNAMGWYRQAPWKERELLARISRGGSTKYADSVKGRFTISRDNAKNTVYLQMNSLKREDTAVYSCATGYYGYRYGYWGQGTQVTVSS
  polyreactivity (PSR sort gate): high polyreactivity

## QVQLVESGGGLVQAGGSLRLSCAASGFTLGVYTMGGSRQAPGKVRELVARITSGGRTYSADSVKGRFTISRDNAKNSVYLQMNSLQPEDTAVYYCAKVDGRRTYYTVHRYERDYWGQGTQVTVSS
  polyreactivity (PSR sort gate): low polyreactivity

## QVQLVESGGGLVQAGGSLRLSCAASGFTLIHYAMGWYRQATGKERELVAGITTSGGSTYYADSVKGRFTFSRDNAKNTVYLQMTSLKPEDTAVYYCNRLTRRWYSLRSYDYWGQGTQVTVSS
  polyreactivity (PSR sort gate): high polyreactivity

## QVQLVESGGGLVQAGGSLRLSCAASGFTLKQYAMGWYRQAPGKERELVAAIRWSGGSTNYADSVKGRFTISRDNAKNTVYLQMNSLKPEDTAVYYCAADFRTPYFGIRYGYWGQGTQVTVSS
  polyreactivity (PSR sort gate): high polyreactivity

## QVQLVESGGGLVQAGGSLRLSCAASGFTLLGYAMGWYRQAPGKERELVAAISYSGVSTDYADSVKGRFTISRDNAKNTVYLQMNSLKPEDTAVSYCIAVSTDSFLQDYNYWGQGTQVTVSS
  polyreactivity (PSR sort gate): low polyreactivity

## QVQLVESGGGLVQAGGSLRLSCAASGFTLQQYTMGWYRQAPGKERELVAAISTSGVRTYYADSVKGRFTISRDNAKNTVYLQMNSLKPEDTAVYYCNAKVRKSRFYYWGQGTQVTVSS
  polyreactivity (PSR sort gate): high polyreactivity

## QVQLVESGGGLVQAGGSLRLSCAASGFTLRVNAMGWYRHPPGKERELVAAISDSGGDTYYADSVKGRFTISRDNAKNTVYLQMNSLKPEDTAVYYCAADDGSENDYWGQGTQVTVSS
  polyreactivity (PSR sort gate): low polyreactivity

## QVQLVESGGGLVQAGGSLRLSCAASGFTLTQNAMGWYRQAPGKERELVAAISRSGGRTYYADSVKGRFTISRDNAKNTVYLQMNSLKPEDTAVYYCNAYVTYPGTTMDDWGQGTQVTVSS
  polyreactivity (PSR sort gate): high polyreactivity

## QVQLVESGGGLVQAGGSLRLSCAASGFTLVKYVMGWYRQAPGKERELVAAINRSGTSTYYADSVKGRFTISRDNAKNTVYLQMNCLKPDDTAVYYCAADRSRNFDWGQGTQVTVSS
  polyreactivity (PSR sort gate): high polyreactivity

## QVQLVESGGGLVQAGGSLRLSCAASGFTLWLNAMGWYRQAPGKERELLAAITTSDDGTYYADSVKGRFTISRDNAKNTVYLQMNSLKPEETAVYYCAADYYSVQYDYWGQGTQVTVSS
  polyreactivity (PSR sort gate): low polyreactivity

## QVQLVESGGGLVQAGGSLRLSCAASGFTLWLYAMGWYRQAPGKERELVATISYRGDSTYYADSVKGRFTISRDNAKNTVYLQMNSLKPEDTAVYYCARRYTHTGRYYYWGQGTQVTVSS
  polyreactivity (PSR sort gate): high polyreactivity

## QVQLVESGGGLVQAGGSLRLSCAASGFTLWYYAMGWYRQAPGKERELVAGINSGGRTYYADSVKGRFTISRDNAKNTVYLQMNSLKPEDTAVYNCNARAWSSISHNSYIMDYWGQGTQVTVSS
  polyreactivity (PSR sort gate): high polyreactivity

## QVQLVESGGGLVQAGGSLRLSCAASGFTLYRNAMGWNRQAPGKERELVAAISSSGGRTYYADSVKGRFTISRDNAKNTVYLQMNSLKPEDTAVYYCAADFYRYGPQLGYWGQATQVTVSS
  polyreactivity (PSR sort gate): high polyreactivity

## QVQLVESGGGLVQAGGSLRLSCAASGFTPGNVMGWYRQAPGKERELVAAISWSGDSTYYADSVKGRFTISRDNAKNTVYLQMNSLKPEDTAVYYCAARVVGSYRKTYPYGLYYWGQGTQVTVSS
  polyreactivity (PSR sort gate): high polyreactivity
